The target of the test is IL-15R β protein. In words: BLI (Octet-RED); IL-15R β immobilized on Ni-NTA biosensors, serial dilutions of the complex as analyte, global 1:1 fit.
Sequence of IL-15R β protein (P14784 27-240): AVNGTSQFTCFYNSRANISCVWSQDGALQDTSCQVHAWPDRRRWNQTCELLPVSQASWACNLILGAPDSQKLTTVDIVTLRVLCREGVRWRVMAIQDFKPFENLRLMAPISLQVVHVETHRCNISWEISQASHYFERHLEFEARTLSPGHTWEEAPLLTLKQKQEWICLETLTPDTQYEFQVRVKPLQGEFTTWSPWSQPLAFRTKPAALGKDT

As a reminder, the Kd is the concentration at which binding is half-saturated. The term koff denotes the rate constant with which the complex falls apart. One may read the kon as a measure of how fast the partners come together. The low end stands for slower complex formation, the high end for faster complex formation. Substance ALT803 (Fc fusion) returned a Kd of 3.9 nM, a koff of 0.000235 s⁻¹ and an on-rate (kon) of 60400 M⁻¹ s⁻¹.
